Values of other authors as cited in publication PMC3617488 (European journal of nuclear medicine and molecular imaging, 2011).

Experiments:
[1] = human

Substance	Plasma half-life (comparison with exendin-4)	Half-life of the parent peptide [1] [h]
AC3174: exendin-4 analog which contains a leucine for methionine substitution	shorter plasma half-life	
exendin-4: subcutaneously administered peptide drug used in the treatment of type 2 diabetes		9.57
